Measurements: patent publication CN115466329A (GUANGDONG FAPON PHARMACEUTICAL CO LTD, dated 2022)

How the values were obtained:
PD-1-his(ACRO)重组蛋白 = biological target: T1, PD-1-his(ACRO)重组蛋白 (UniProt Q15116 25-167); test: BLI (ForteBio Octet QKe), PD-1-his loaded on HIS1K sensor, antibody in solution
T1 construct: Bought (ACRO); not shown: his tag

[1] = biological target: T2, 小鼠PD1 expressed on CHO cells (CHO-mousePD1) (mouse, UniProt Q02242 25-288); test: flow cytometry on CHO-mousePD1 cells
T2 construct: whole, on cells; also called CHO-mPD1
T2 sequence (looked up): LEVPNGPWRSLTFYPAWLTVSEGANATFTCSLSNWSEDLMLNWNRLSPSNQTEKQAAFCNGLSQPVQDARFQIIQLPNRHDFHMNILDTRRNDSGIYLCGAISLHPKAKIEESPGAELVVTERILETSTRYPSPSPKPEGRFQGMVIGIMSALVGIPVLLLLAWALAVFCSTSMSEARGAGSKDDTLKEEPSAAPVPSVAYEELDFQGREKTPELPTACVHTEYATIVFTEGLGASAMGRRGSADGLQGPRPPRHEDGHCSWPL

[2] = biological target: CD28 (ACRO) coated on the ELISA plate (UniProt P10747 19-152); test: ELISA, antigen coated at 1μg/ml
[3] = biological target: T3, ICOS (ACRO) coated on the ELISA plate (UniProt Q9Y6W8 21-140); test: ELISA, antigen coated at 1μg/ml
T3 sequence (looked up): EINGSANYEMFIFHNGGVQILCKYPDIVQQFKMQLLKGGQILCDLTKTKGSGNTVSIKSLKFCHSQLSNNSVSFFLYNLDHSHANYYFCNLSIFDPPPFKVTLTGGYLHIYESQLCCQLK

[4] = biological target: T4, CTLA-4 (ACRO) coated on the ELISA plate (UniProt P16410 37-162, limits assumed); test: ELISA, antigen coated at 1μg/ml
T4 sequence (looked up): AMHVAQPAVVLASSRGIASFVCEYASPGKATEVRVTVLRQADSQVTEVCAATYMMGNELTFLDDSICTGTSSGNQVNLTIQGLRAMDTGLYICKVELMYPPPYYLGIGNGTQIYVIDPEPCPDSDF

T1 sequence (Q15116 25-167 limits assumed): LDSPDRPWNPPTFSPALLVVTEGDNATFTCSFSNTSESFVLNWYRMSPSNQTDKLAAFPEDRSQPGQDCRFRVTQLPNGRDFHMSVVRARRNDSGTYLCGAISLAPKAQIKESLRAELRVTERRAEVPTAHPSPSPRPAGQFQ
Chain of CD28 (ACRO) coated on the ELISA plate (P10747 19-152 limits assumed): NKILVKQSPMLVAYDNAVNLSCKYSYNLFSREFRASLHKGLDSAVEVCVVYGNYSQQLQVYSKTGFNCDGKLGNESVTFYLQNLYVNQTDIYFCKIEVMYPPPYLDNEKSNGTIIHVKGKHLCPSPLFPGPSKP

Kd (PD-1-his(ACRO)重组蛋白): < 1 pM | koff (PD-1-his(ACRO)重组蛋白): < 1e-07 s⁻¹ | kon (PD-1-his(ACRO)重组蛋白): 771000 M⁻¹ s⁻¹ | binding result [1]: no binding (tested: 初始浓度为10μg/ml) | binding result [2]: no binding (tested: 10μg/ml) | binding result [3]: no binding (tested: 10μg/ml) | binding result [4]: no binding (tested: 10μg/ml)
B1: 抗PD-1鼠单抗PD-1-76-C2 (antibody, V domains shown)
VH: QIQLVQSGPELKKPGETVKISCKASGYTFTNYGMNWVKQAPGKGLKWMGWINTHTGEPTYADDFKGRFAFSLETSASTAYLQIKNLKNEDVATYFCTKEGEGIGFAYWGQGTLVTVSA
VL: DVLMTQTPLSLPVSLGDQASISCRSSQSIVYSNGKTYLEWYLQKPGQSPKLLIYKVSNRFSGVPDRFSGSGSGTDFTLKISRVEAEDLGVYYCFQGSHVPNTFGGGTKLEIKR
notes: Mouse monoclonal antibody from a hybridoma; an mIgG1 isotype control was used; also called PD-76-C2; 抗人PD-1鼠单抗
